Results taken from the supplement of paper PMC10567573.

Test: protein stability index of a GFP-peptide fusion (GPS, HEK-293T) (PSI 1-6); higher = more stable
[1] = parent: IOH13764_23, c terminus: a fixed tail appended
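Also: lentivirally expressed fusions sorted by FACS into six bins by GFP to DsRed ratio, PSI derived from sequencing read proportions per bin multiplied by bin number.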

## RMVPALPPKRMLGADREFIEARRR
parent: IOH13259_22, c terminus: a fixed tail appended
  protein stability index: 3.67

## RKCPVHGKTMELFCQTDQTCICYL
parent: IOH13948_38, c terminus: a fixed tail appended
  protein stability index: 2.05

## FLDERLYCESHAKARVKPPEGYDV [PDLIM4 WT]
parent: IOH13881_50, c terminus: a fixed tail appended
  protein stability index: 1.92

## MTVEKEAPDAHFTVDKQNISLWPR [CD207 WT]
parent: IOH12930_1, c terminus: a fixed tail appended
  protein stability index: 3.23

## YQGPGTRRLQEVLGVQTGGPGGRR
parent: IOH14793_62, c terminus: a fixed tail appended
  protein stability index: 3.2

## DLSAANEKNLLLQNQVDELERKFR
parent: IOH13594_61, c terminus: a fixed tail appended
  protein stability index: 4.05

## FHLGLEDILMEEEEGVVGGLSGGA
parent: IOH14020_87, c terminus: a fixed tail appended
  protein stability index: 3.6

## EENMERIGEEVRQLMEKLREKQLS
parent: IOH13216_14, c terminus: a fixed tail appended
  protein stability index: 4.44

## FQTRQEMTSMSAELKMRAIQAEER
parent: IOH13594_66, c terminus: a fixed tail appended
  protein stability index: 4

## LWKMKPRRNLEEDDYLHKDTGETS
parent: IOH13052_3, c terminus: a fixed tail appended
  protein stability index: 4.46

## ARKYFERLPGGGWTLRRTKELRKD
parent: IOH14793_58, c terminus: a fixed tail appended
  protein stability index: 3.49

## ENLFTGEDLDELEEELNTLDLEE
parent: IOH14032_69, c terminus: native
  protein stability index: 4.42

## QEAKLLHWNGRHKPWDFPSVHNDL [GLT8D2 WT]
parent: IOH13397_52, c terminus: a fixed tail appended
  protein stability index: 2.77

## FAEKGELRKSIFSESRKPTVSIME
parent: IOH13948_21, c terminus: a fixed tail appended
  protein stability index: 2.01

## WMLTRKQFGLLSFFFAVLHAIYSL
parent: IOH13052_27, c terminus: a fixed tail appended
  protein stability index: 1.71

## SLRENDFIEIELDRQELTYQELLR
parent: IOH13159_46, c terminus: a fixed tail appended
  protein stability index: 2.87

## YYPSGDAFASGSDDATCRLYDLRA
parent: IOH14466_42, c terminus: a fixed tail appended
  protein stability index: 2.4

## YQELLRVCCCELGVNPDQVEKIRK
parent: IOH13159_49, c terminus: a fixed tail appended
  protein stability index: 2.07

## AVPTDEARAFAEKNGLSFIETSAL
[1]
  protein stability index: 2.34

## AVPTDEARAFAEKNNLSFIETSAL
[1]
  protein stability index: 2.72

## YGETDFHKQDGKAGLFSQEQYERN [TMEM40 WT]
parent: IOH12831_5, c terminus: a fixed tail appended
  protein stability index: 4.04

## RKADFKAGKALVISGREVFEFRPE
parent: IOH14032_47, c terminus: a fixed tail appended
  protein stability index: 2.82

## ESTIVELGSIFQQLAHMVKEQEET
parent: IOH14584_38, c terminus: a fixed tail appended
  protein stability index: 2.04

## RFQDLVLRMLEYEPAARISPLGAL
parent: IOH14793_68, c terminus: a fixed tail appended
  protein stability index: 2.31

## PAVDLNQVLNETRNQYEALVETNR
parent: IOH13096_37, c terminus: a fixed tail appended
  protein stability index: 3.33

## YVPEKVKKAEKKLEENPYDLDAWS [CSTF3 WT]
parent: IOH12987_3, c terminus: a fixed tail appended
  protein stability index: 2.14

## FPSDHLGDLGDPFHLGLEDILMEE
parent: IOH14020_85, c terminus: a fixed tail appended
  protein stability index: 3.43

## TLAALLLNRSESDIRYLLGYVSQQ [FEM1B WT]
parent: IOH13134_4, c terminus: a fixed tail appended
  protein stability index: 2.44

## VAHVESLQEKSQCALEEYVRSQYP
parent: IOH12813_56, c terminus: a fixed tail appended
  protein stability index: 3.61

## WTVANMEEIKKLTTDPDLILEVLR [LARP4 WT]
parent: IOH13489_15, c terminus: a fixed tail appended
  protein stability index: 2.1

## FWNFKQMWDSKKIGLRQHHCRKCG [WDFY2 WT]
parent: IOH13317_50, c terminus: a fixed tail appended
  protein stability index: 2

## DINSVRYYPSGDAFASGSDDATCR
parent: IOH14466_41, c terminus: a fixed tail appended
  protein stability index: 3.92

## VRIQNPSLRENDFIEIELDRQELT
parent: IOH13159_45, c terminus: a fixed tail appended
  protein stability index: 2.38

## VVLKLFLSFSGSDVQNKLKESAQC
parent: IOH13259_29, c terminus: a fixed tail appended
  protein stability index: 2.49

## NIYYYLEDDSMSVIEPVVENSGIL [EFHC1 WT]
parent: IOH14055_21, c terminus: a fixed tail appended
  protein stability index: 2.15

## QCIECGKSFNRHCNLIRHQKIHTV
parent: IOH12838_62, c terminus: a fixed tail appended
  protein stability index: 3.73

## AFLELPHGSGGSGYPAAPPAVPFA [TBX6 WT]
parent: IOH14639_65, c terminus: a fixed tail appended
  protein stability index: 2.31

## CVQCKMPVCYQCLEEGKHSSHEVK [TRIM9 WT]
parent: IOH12704_41, c terminus: a fixed tail appended
  protein stability index: 3.89

## FVENGHSESSGQTHLEGDTVQIIC [CFHR2 WT]
parent: IOH13657_16, c terminus: a fixed tail appended
  protein stability index: 2.78

## ELPNIKREISETEAKALLKERQKK
parent: IOH14020_55, c terminus: a fixed tail appended
  protein stability index: 2.4

## LHQETQLIHVYLPLTSHILRAFVN
parent: IOH13259_67, c terminus: a fixed tail appended
  protein stability index: 2.4

## KKVLNHGYDDDNHDYIVRSGERWL
parent: IOH14793_15, c terminus: a fixed tail appended
  protein stability index: 2.93

## VCCCELGVNPDQVEKIRKLPNTLL
parent: IOH13159_50, c terminus: a fixed tail appended
  protein stability index: 1.91

## RSEFTLMAKRIGKDLSNTFAKLEK
parent: IOH14584_7, c terminus: a fixed tail appended
  protein stability index: 2.17

## QKRYHCKECGKVFSQSAGLIQHQR
parent: IOH12838_52, c terminus: a fixed tail appended
  protein stability index: 3.14

## YQSYFKTIEELQQKILCSKSENAR
parent: IOH13096_18, c terminus: a fixed tail appended
  protein stability index: 1.93

## LVVFTASMEIYGSAVADKLDNSRS [DULLARD WT]
parent: IOH12711_22, c terminus: a fixed tail appended
  protein stability index: 2.76

## SGLVRRLWRSRVVPDREEGGSGGG [SMAD6 WT]
parent: IOH13078_2, c terminus: a fixed tail appended
  protein stability index: 4.12

## NIPFFPDLQITDQVALLRLTWSEL
parent: IOH12813_39, c terminus: a fixed tail appended
  protein stability index: 2.29

## HSLRAVSTDPPHHDHHDEFCLMP
parent: IOH13216_18, c terminus: native
  protein stability index: 2.27

## FWHDTLTEQLWRIFAGVHDEKAKP [TLE6 WT]
parent: IOH13956_6, c terminus: a fixed tail appended
  protein stability index: 1.76

## YFKCVQKDIQPYMRRMVATWMLEV [CCND2 WT]
parent: IOH13739_8, c terminus: a fixed tail appended
  protein stability index: 2.47

## YQRVLPLPIFTPAKMGATKEERED [TCAP WT]
parent: IOH13813_15, c terminus: a fixed tail appended
  protein stability index: 2.04
